Experimental findings from article PMC12666128, “Engineering ω-transaminase for efficient dihydroxyacetone transamination in serinol biosynthesis starting from methanol” (Synthetic and Systems Biotechnology, 2025) are described below.

Substrate in the data set: O=C(CO)CO
Format: biochemical, Chromobacterium violaceum. The note with it: DHA as varied substrate; PLP-dependent.

B1: Cv-ωTA (Chromobacterium violaceum ATCC 12472) (protein)
chain: MQKQRTTSQWRELDAAHHLHPFTDTASLNQAGARVMTRGEGVYLWDSEGNKIIDGMAGLWCVNVGYGRKDFAEAARRQMEELPFYNTFFKTTHPAVVELSSLLAEVTPAGFDRVFYTNSGSESVDTMIRMVRRYWDVQGKPEKKTLIGRWNGYHGSTIGGASLGGMKYMHEQGDLPIPGMAHIEQPWWYKHGKDMTPDEFGVVAARWLEEKILEIGADKVAAFVGEPIQGAGGVIVPPATYWPEIERICRKYDVLLVADEVICGFGRTGEWFGHQHFGFQPDLFTAAKGLSSGYLPIGAVFVGKRVAEGLIAGGDFNHGFTYSGHPVCAAVAHANVAALRDEGIVQRVKDDIGPYMQKRWRETFSRFEHVDDVRGVGMVQAFTLVKNKAKRELFPDFGEIGTLCRDIFFRNNLIMRACGDHIVSAPPLVMTRAEVDEMLAVAERCLEEFEQTLKARGLA
For B1, the Michaelis-Menten constant (Km) is reported as 15.2 ± 0.11 mM, the kcat was 1.61 ± 0.07 s⁻¹ and the kcat/Km amounted to 100 M⁻¹ s⁻¹.
